{
  "source": "patent US20240254196A1",
  "about": "(MEDYTOX, published 2024)",
  "binders": {"B1": {"name": "canakinumab (antibody)", "chain 1": "not shown", "chain 2": "EIVLTQSPDFQSVTPKEKVTITCRASQSIGSSLHWYQQKPDQSPKLLIKYASQSFSGVPSRFSGSGSGTDFTLTINSLEAEDAAAYYCHQSSSLPFTFGPGTKVDIKRTVAAPSVFIFPPSDEQLKSGTASVVCLLNNFYPREAKVQWKVDNALQSGNSQESVTEQDSKDSTYSLSSTLTLSKADYEKHKVYACEVTHQGLSSPVTKSFNRGEC"}},
  "key": {"human IL-1β [1]": {"target": "T1, human IL-1β (human, UniProt P01584 117-269)", "T1 construct": "Bought protein; also called hIL-1β", "experiment": "SPR, Biacore T200; binder captured by anti-human Fc, cytokine injected; 1:1 Langmuir", "protocol": "(§1) In order to analyze binding capacity of PET101 to IL-1α and IL-1β more quantitatively, surface plasmon resonance analysis was performed by using Biacore T200 (GE healthcare). A Series S CM5 Sensor Chip (GE healthcare, BR100530) was used to measure the binding constant, and the anti-human Fc antibodies included in the Human Antibody Capture Kit (GE healthcare, BR100839) were immobilized to the sensor chip according to the manufacturer's manual by using an amine coupling kit (GE healthcare, BR100050). Flow cell 1 of the CM5 sensor, to which anti-human Fc antibodies were immobilized, was used as a blank space, and in Flow cells 2, 3, and 4, 100 nM of PET101 (18 μg/ml), 100 nM of rilonacept (25 μg/ml), and 100 nM of canakinumab (15 μg/ml) were respectively loaded for 1 minute at a flow rate of 10 μl/min. After preparation of all the flow cells, 0.25 nM, 0.5 nM, 1 nM, 2 nM, 4 nM, and 8 nM of human IL-1α (R&D systems, 200-LA), human IL-1β (R&D systems, 201-LB), and mouse IL-1α (R&D systems, 400-ML), mouse IL-1β (R&D systems, 401-ML), and rhesus monkey (Rhesus macaque) IL-1β (R&D systems, 1318-RL) antigens were injected at a flow rate of 30 μl/min, to carry out a binding reaction for 4 minutes, subsequently, only 1×HBS-EP+ buffer (GE healthcare, BR100669) was injected at a flow rate of 30 μl/min to perform a dissociation reaction for 10 minutes. Affinity was calculated by performing normalization and subtraction in each acquired sensorgram comparing with the blank cell. The BIAevaluation software (GE healthcare) was used for affinity calculation, and the association rate constant and dissociation rate constant were calculated through the 1:1 Langmuir model analysis. An equilibrium dissociation constant (KD) is a value obtained by dividing the dissociation rate constant (Kd) by the association rate constant (Kₐ)."}, "[2]": {"target": "T2, rhesus monkey (Rhesus macaque) IL-1β (rhesus monkey (Rhesus macaque), UniProt P48090 117-269)", "T2 construct": "Bought protein; also called Monkey IL-1β; monkey IL-1β", "experiment": "SPR, Biacore T200; binder captured by anti-human Fc, cytokine injected; 1:1 Langmuir", "protocol": "as §1"}, "human IL-1β [3]": {"target": "T1, human IL-1β", "experiment": "ELISA, human IL-1β coated at 30 ng/well, detection with anti-human IgG Fc-HRP, OD 450 nm", "protocol": "An analysis of binding of three types of IL-1 specific Fc fusion proteins (rilonacept, IL1T, PET101) to human IL-1β was performed by using an ELISA method. For comparison of binding capacity, human IL-1β antibody canakinumab was used as a control. […] Next day, the plate was washed with Phosphate Buffered Saline with Tween-20 (PBST; TEKNOVA, P1192). All washing procedures in this analysis were performed by using an AquaMax 2000 plate washer (Molecular Devices, 0310-5363). IL1T, PET101, rilonacept, and canakinumab were diluted in PBST containing 1% (w/v) skim milk to an appropriate concentration and treated in each well, binding was induced at room temperature for 1 hour, and plate was washed 3 times. Thereafter, peroxidase-bound anti-human IgG Fc goat antibodies (Invitrogen 31413) were diluted (1:10,000) in PBST containing 1% (w/v) skim milk to induce binding, and washed 3 times with PBST, and then color reaction was induced by treating 3,3′,5,5′-tetramethylbenzidine (TMB) substrate solution (Thermo Fisher Scientific, 34028) in the dark at room temperature. Thereafter, the reaction was terminated by treatment with 1N of sulfuric acid (DUKSAN, 255), and absorbance was measured at 450 nm by using a SpctraMax i3 multimode plate reader (Molecular Devices, 10192-220)."}},
  "data": [
    {"binder": "B1", "values": [
      {"measurement": "Kd", "setting": "human IL-1β [1]", "result": 0.0684, "unit": "nM"},
      {"measurement": "koff", "setting": "human IL-1β [1]", "result": "5.21e-05", "unit": "s⁻¹"},
      {"measurement": "kon", "setting": "human IL-1β [1]", "result": 762000, "unit": "M⁻¹ s⁻¹"},
      {"measurement": "Kd", "setting": "[2]", "result": 2850, "unit": "nM"},
      {"measurement": "koff", "setting": "[2]", "result": 0.0181, "unit": "s⁻¹"},
      {"measurement": "kon", "setting": "[2]", "result": 6350, "unit": "M⁻¹ s⁻¹"},
      {"measurement": "EC50", "setting": "human IL-1β [3]", "result": 0.0882, "unit": "nM"}
    ]}
  ]
}
